Reference: patent US20250092135A1 (NANJING LEADS BIOLABS, published 2025)

Legend:
[1] = target: T1, Cynomolgus monkey MUC16-His (cynomolgus monkey); test: BLI (ForteBio Octet RED96), antibody on AHC sensor, analyte 100-3.13 nM, 1:1 model
T1 construct: The entry includes the C-terminal 6xHis tag; also called Cynomolgus monkey MUC16 protein
T1 chain: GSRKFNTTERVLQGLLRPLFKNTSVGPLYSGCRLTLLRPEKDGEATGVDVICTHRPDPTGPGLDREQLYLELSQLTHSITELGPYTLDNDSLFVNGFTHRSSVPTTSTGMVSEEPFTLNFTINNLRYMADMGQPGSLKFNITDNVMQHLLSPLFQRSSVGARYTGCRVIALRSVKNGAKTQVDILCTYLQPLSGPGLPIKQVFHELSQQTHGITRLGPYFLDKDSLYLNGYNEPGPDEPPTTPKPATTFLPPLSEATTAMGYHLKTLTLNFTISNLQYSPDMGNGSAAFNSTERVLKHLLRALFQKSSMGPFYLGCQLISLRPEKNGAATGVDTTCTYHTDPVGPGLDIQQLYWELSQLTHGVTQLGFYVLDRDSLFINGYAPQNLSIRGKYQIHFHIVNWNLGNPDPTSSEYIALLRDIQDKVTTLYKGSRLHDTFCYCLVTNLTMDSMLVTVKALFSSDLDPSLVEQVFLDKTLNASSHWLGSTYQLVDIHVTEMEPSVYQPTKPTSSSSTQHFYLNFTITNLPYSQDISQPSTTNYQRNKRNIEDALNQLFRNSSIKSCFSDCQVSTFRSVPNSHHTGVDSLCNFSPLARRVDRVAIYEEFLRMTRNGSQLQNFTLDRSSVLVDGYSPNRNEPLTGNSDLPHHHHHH
Text: (§1) In this experiment, the binding affinity of the bispecific antibody for the human CD3 protein (Cat #CT038-H2508H, Sinobiological), cynomolgus monkey CD3 protein (Cat #CDD-C52W4, Acrobiosystems), human MUC16 protein (full-length human MUC16, the membrane-proximal end of the extracellular region of MUC16 (Table 26)), and cynomolgus monkey MUC16 protein (full-length cynomolgus monkey MUC16, the membrane-proximal end of the extracellular region of MUC16 (Table 26)) was detected using ForteBio Octet RED96 according to the manufacturer's instructions.
(§2) Briefly, an AHC sensor (ForteBio, Cat #18-5060) was placed in a running buffer (1×PBS, Hyclone, Cat #SH30256.01, containing 0.02% Tween 20, pH 7.0) and pre-equilibrated at room temperature for 10 min. […] The experimental data were fitted and calculated using a Fortebio Data Analysis software 1:1 binding model.

[2] = target: T2, Cynomolgus monkey CD3D & CD3E heterodimer protein (cynomolgus monkey, UniProt Q95LI5 22-117; Q95LI8 22-105); test: as above
T2 construct: same catalogue number; also called monkey CD3 protein (Acro biosystems, Cat #CDD-C52W4)
Text: as §1, §2

[3] = target: T3, human CD3 protein endogenously expressed on Jurkat cells (human, UniProt P07766 23-207); test: flow cytometry, Jurkat cells (endogenous CD3), PE anti-human IgG Fc secondary, MFI; EC50 table under the plot, unit from the axis Conc.(nM); curve flat at about 1250 up to about 33 nM, about 1900-2200 at the two top concentrations
T3 construct: whole, on cells; The whole CD3 complex is on the cells; also called CD3 on Jurkat cells; CD3 on Jurkat/NFAT-luc cells
Protocol: (3) Whether the anti-CD3/anti-MUC16 bispecific antibodies in the present invention could bind to the CD3 protein endogenously expressed on Jurkat cells (Cell Bank of Type Culture Collection Committee of the Chinese Academy of Sciences, Cat #SCSP-513) was determined by cell binding experiments. Detection was performed using the flow cytometry described above, with the following differences: the dilution gradient for the test bispecific antibody was: a maximum concentration of 200 nM, starting from a second concentration of 100 nM, 5-fold dilution, 10 points; the bispecific antibodies were added to Jurkat cells, and the cells were incubated at 4° C. for 30 min. The cells were washed twice with PBS, and then fluorescent secondary antibody R-PE-conjugated AffiniPure Goat Anti-Human IgG, Fcγ Fragment Specific was added. The cells were incubated at 4° C. for 30 min. The cells were washed twice with PBS and then resuspended, and finally, fluorescence signals were detected using a BD Accuri C5 (BD Bioscience) flow cytometer.

T2 sequence (Q95LI5 22-117 limits assumed, chain 1 of 2): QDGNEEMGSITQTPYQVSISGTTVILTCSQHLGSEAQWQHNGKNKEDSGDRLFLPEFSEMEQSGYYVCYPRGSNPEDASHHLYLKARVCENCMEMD
T2 sequence (Q95LI8 22-105 limits assumed, chain 2 of 2): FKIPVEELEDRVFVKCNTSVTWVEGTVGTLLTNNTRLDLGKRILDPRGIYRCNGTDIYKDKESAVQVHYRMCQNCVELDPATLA
T3 sequence (P07766 23-207): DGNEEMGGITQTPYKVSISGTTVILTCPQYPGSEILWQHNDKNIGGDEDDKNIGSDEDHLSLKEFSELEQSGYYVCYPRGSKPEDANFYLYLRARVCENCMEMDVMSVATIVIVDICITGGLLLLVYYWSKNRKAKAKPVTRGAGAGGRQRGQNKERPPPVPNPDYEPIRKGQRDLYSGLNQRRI

Kd [1]: 2.91 nM
koff [1]: 0.000546 s⁻¹
kon [1]: 188000 M⁻¹ s⁻¹
Kd [2]: 30.4 nM
koff [2]: 0.00378 s⁻¹
kon [2]: 124000 M⁻¹ s⁻¹
EC50 [3]: ~39.3 nM
B1: anti-CD3/MUC16 bispecific antibody MCH7-23L2-MCH7 (bispecific antibody, human IgG1, kappa, L234A L235A)
heavy 1: QVQLVQSGAEVKKPGASVKVSCKASGYTFTDYNIHWVRQAPGQGLEWMGYIYPYNGVSDYNQNFKSRVTMTTDTSTSTAYMELRSLRSDDTAVYYCARWDFGSGYYFDYWGQGTLVTVSSASTKGPSVFPLAPSSKSTSGGTAALGCLVKDYFPEPVTVSWNSGALTSGVHTFPAVLQSSGLYSLSSVVTVPSSSLGTQTYICNVNHKPSNTKVDKKVEPKSCEVQLVESGGGLVQPGGSLKLSCAASGFTFSTYAMNWVRQAPGKGLEWVGRIRSKYNNYATYYADSVKDRFTISRDDSKNTLYLQMNSLKTEDTAVYYCTRHGNFGNSYVSWFAYWGQGTTVTVSSGGGGSGGGGSGGGGSQAVVTQEPSLTVSPGGTVTLTCRSSTGAVTTSNYANWVQQKPGQAPRGLIGGTNKRAPGVPARFSGSLLGGKAALTLSGAQPEDEAEYFCALWYSNLWVFGGGTKLTVLGEPKSSDKTHTCPPCPAPEAAGGPSVFLFPPKPKDTLMISRTPEVTCVVVAVSHEDPEVKFNWYVDGVEVHNAKTKPREEQYNSTYRVVSVLTVLHQDWLNGKEYKCKVSNKALAAPIEKTISKAKGQPREPQVCTLPPSRDELTKNQVSLSCAVKGFYPSDIAVEWESNGQPENNYKTTPPVLDSDGSFFLVSKLTVDKSRWQQGNVFSCSVMHEALHNHYTQKSLSLSPGK
heavy 2: not shown
light: EIVLTQSPATLSLSPGERATLSCRASSSVIYMSWYQQKPGQAPRLLIYGTSTLASGIPARFSGSGSGTDFTLTISSLEPEDFAVYYCQQWSSNPFTFGQGTKLEIKRTVAAPSVFIFPPSDEQLKSGTASVVCLLNNFYPREAKVQWKVDNALQSGNSQESVTEQDSKDSTYSLSSTLTLSKADYEKHKVYACEVTHQGLSSPVTKSFNRGEC
notes: MCH7-23L2ScFv-Hole (VH-CH1-scFv-Fc) + MCH7-KIH-Knob + two light chains MCL4 LC
